The structures appear in SMILES notation. Where two headings read alike, the source gives them in different places.

Data set [1] is described as follows: Stability of radioligands in PBS buffer (radio-HPLC). The class given is physicochemical. The method, then: The purpose of this experiment was to test the stability of the radioligands under buffer conditions simulating the physiological environment. This stability is a prerequisite for further animal experiments.
1. ^68Ga-SDYD01: ^68Ga-SDYD01 was added to PBS buffer (pH=7.4) and incubated at 37° C. The mixture samples were taken for radio-HPLC analysis after 0.5 hours, 1 hour, and 2 hours of incubation. The stability of ^68Ga-SDYD01 in PBS buffer: the radiochemical purities of ^68Ga-SDYD01 after incubation in PBS for 0.5 hours, 1 hour, and 2 hours were 98%, 97%, and 97%, respectively (FIG. 4).
2. ^177Lu-SDYD01: ^177Lu-SDYD01 was added to PBS buffer (pH=7.4) and incubated at 37° C. The mixture samples were taken for radio-HPLC analysis after 24 hours, 48 hours, and 120 hours of incubation. The stability of ^177Lu-SDYD01 in PBS buffer: the radiochemical purities of ^177Lu-SDYD01 after incubation in PBS for 24 hours, 48 hours, and 120 hours were 97%, 96%, and 94%, respectively (FIG. 5).
1. ^68Ga-SDYD02: ^68Ga-SDYD02 was added to PBS buffer (pH=7.4) and incubated at 37° C. The mixture samples were taken for radio-HPLC analysis after 0.5 hours, 1 hour, and 2 hours of incubation. The stability of ^68Ga-SDYD02 in PBS buffer: the radiochemical purities of ^68Ga-SDYD02 after incubation in PBS for 0.5 hours, 1 hour, and 2 hours were 96%, 95% and 93%, respectively (FIG. 10).
2. ^177Lu-SDYD02: ^177Lu-SDYD02 was added to PBS buffer (pH=7.4) and incubated at 37° C. The mixture samples were taken for radio-HPLC analysis after 24 hours, 48 hours, and 120 hours of incubation. The stability of ^177Lu-SDYD02 in PBS buffer: the radiochemical purities of ^177Lu-SDYD02 after incubation in PBS for 24 hours, 48 hours, and 120 hours were 95%, 91% and 87%, respectively (FIG. 11).
1. ^68Ga-SDYD05: ^68Ga-SDYD05 was added to PBS buffer (pH=7.4) and incubated at 37° C. The mixture samples were taken for radio-HPLC analysis after 0.5 hours, 1 hour, and 2 hours of incubation. The stability of ^68Ga-SDYD05 in PBS buffer: the radiochemical purities of ^68Ga-SDYD05 after incubation in PBS for 0.5 hours, 1 hour, and 2 hours were 98%, 96% and 95%, respectively (FIG. 16).
2. ^177Lu-SDYD05: ^177Lu-SDYD05 was added to PBS buffer (pH=7.4) and incubated at 37° C. The mixture samples were taken for radio-HPLC analysis after 24 hours, 48 hours, and 120 hours of incubation. The stability of ^177Lu-SDYD05 in PBS buffer: the radiochemical purities of ^177Lu-SDYD05 after incubation in PBS for 24 hours, 48 hours, and 120 hours were 97%, 96% and 96%, respectively (FIG. 17).
1. ^68Ga-SDYD06: ^68Ga-SDYD06 was added to PBS buffer (pH=7.4) and incubated at 37° C. The mixture samples were taken for radio-HPLC analysis after 0.5, 1, and 2 hours of incubation. The stability of ^68Ga-SDYD06 in PBS buffer: the radiochemical purities of ^68Ga-SDYD06 after incubation in PBS for 0.5 hours, 1 hour, and 2 hours were 96%, 94% and 93%, respectively (FIG. 22).
2. ^177Lu-SDYD06: ^177Lu-SDYD06 was added to PBS buffer (pH=7.4) and incubated at 37° C. The mixture samples were taken for radio-HPLC analysis after 24 hours, 48 hours, and 120 hours of incubation.
1. ^68Ga-SDYD03: ^68Ga-SDYD03 was added to PBS buffer (pH=7.4) and incubated at 37° C. The mixture samples were taken for radio-HPLC analysis after 0.5 hours, 1 hour, and 2 hours of incubation. The stability of ^68Ga-SDYD03 PBS in PBS buffer: the radiochemical purities of ^68Ga-SDYD03 after incubation in PBS for 0.5 hours, 1 hour, and 2 hours were 96%, 96% and 95%, respectively (FIG. 27).
2. ^177Lu-SDYD03: ^177Lu-SDYD03 was added to PBS buffer (pH=7.4) and incubated at 37° C. The mixture samples were taken for radio-HPLC analysis after 24 hours, 48 hours, and 120 hours of incubation. The stability of ^177Lu-SDYD03 in PBS buffer: the radiochemical purities of ^177Lu-SDYD03 after incubation in PBS for 24 hours, 48 hours, and 120 hours are 99%, 96% and 94%, respectively (FIG. 28). […]

Data set [2] concerns subcutaneous xenograft tumors (U87 MG cells). The experiment in a line: Small animal PET imaging and biodistribution study. The settings on record: mouse, in vivo. The data set is classed as in vivo, NSG mice. The method, then: (§1) Eleven NSG mice bearing subcutaneous xenograft tumors (U87 MG cells), with tumor sizes approximately 150 mm^3, were used. The mice were intravenously injected via the tail vein with approximately 7.4 MBq of ^68Ga-labeled SDYD01, SDYD02, SDYD03. SDYD04, SDYD05, SDYD06, SDYD07, SDYD08 or SDYD07-1 compounds, or with ^[…]-labeled FAPI-04 or FAP2286 compounds as tracers. Micro PET/CT imaging was performed at 30 min, 60 min, and 120 min post-injection. Static images were acquired in 3D mode for 20 minutes. Reconstruction was performed using the OSEM3D/MAP method to obtain attenuation-corrected PET/CT fusion images.
(§2) NSG mice bearing subcutaneous xenograft tumors (U87 MG cells) were divided into 3 groups, with 11 mice in each group. They were intravenously injected via the tail vein with ^68Ga-labeled SDYD01, SDYD02, SDYD03. SDYD04, SDYD05, SDYD06. SDYD07, SDYD08, or SDYD07-1 compounds, or with ^68Ga-labeled FAPI-04 or FAP2286 compounds as tracers. Tumor-bearing mice injected with ^68Ga-labeled compounds SDYD01, SDYD02, SDYD03, SDYD04, SDYD05, SDYD06, FAPI-04, as well as 68Ga-labeled compounds FAPI-04 and FAP2286, were euthanized at 30 min. 60 min, and 120 min, respectively, for each group. Tumor-bearing mice injected with ^68Ga-labeled compounds SDYD07, SDYD08, and SDYD07-1 were euthanized at 30 min, 60 min, and 90 min, respectively, for each group. Blood, tumors, and other major organs and tissues were collected, weighed, and measured for radioactivity. After radioactive decay correction, the standardized uptake value (SUV) and percentage injected dose per gram of tissue (% ID/g) were calculated. In these figures, (a) represents the PET/CT imaging results, (b) represents the biodistribution results, and (c) represents the relative ratios of radioactive uptake in tumor versus normal tissues.

A short description of data set [3]: Small animal PET imaging and biodistribution study. The class given is in vivo, NSG mice. Particulars: mouse, in vivo, iv, 7.4 MBq, absolute uptake value in the tumor. As to the method: as §1, §2

`CCCCCC(=O)N[C@@H]1CSCc2cc(CSCCNC(=O)[C@@H](CCCCNC(=O)CN3CCN(CC(=O)O)CCN(CC(=O)O)CCN(CC(=O)O)CC3)NC(=O)COCCOCCNC(=O)COCCOCCNC(=O)CCN3C(=O)CC(SCCNC(=O)CCC(=O)N[C@@H](CCCNC(=N)N)C(=O)N[C@@H](CCCNC(=N)N)C(=O)N[C@@H](Cc4ccc5ccccc5c4)C(=O)N[C@@H]4CSSC[C@@H](C(=O)N[C@@H](CCCNC(=N)N)C(N)=O)NC(=O)[C@H](CCCNC(N)=O)NC(=O)[C@H](CCCNC(=N)N)NC(=O)[C@H](Cc5ccc(O)cc5)NC(=O)[C@@H]5CCCN5C(=O)[C@H](CCCCN)NC(=O)[C@H](CCCCN)NC(=O)[C@H](CCCNC(N)=O)NC(=O)[C@H](Cc5ccc(O)cc5)NC4=O)C3=O)cc(c2)CSC[C@@H](C(=O)O)NC(=O)[C@H](Cc2ccccc2)NC(=O)[C@H](CCC(N)=O)NC(=O)C([C@@H](C)O)NC(=O)[C@@H]2CCCN2C(=O)[C@@H]2CCCN2C1=O` (single isomer, unassigned) [^177Lu-SDYD02, metal not drawn]: the “stability in PBS buffer (in words)” value in data set [1] is recorded as “quite stable in PBS buffer”. In the case of `CC(C)CC(CC(C)C)NC(=O)[C@H](Cc1cnc[nH]1)NC(=O)CNC(=O)C(NC(=O)[C@H](C)NC(=O)[C@H](Cc1c[nH]c2ccccc12)NC(=O)[C@H](CCC(N)=O)NC(=O)[C@@H](Cc1ccccc1)NC(=O)COCC(=O)Nc1ccc(CNC(=O)COCCOCCNC(=O)COCCOCCNC(=O)[C@H](CCCCNC(=O)CN2CCN(CC(=O)O)CCN(CC(=O)O)CCN(CC(=O)O)CC2)NC(=O)CCC(=O)N2CCN(CCCOc3ccc4nccc(C(=O)NCC(=O)N5CC(F)(F)C[C@H]5C#N)c4c3)CC2)cc1)C(C)C` (single isomer, unassigned) [^177Lu-SDYD03, metal not drawn], the “stability in PBS buffer (in words)” value in data set [1] (PBS buffer pH=7.4, 37° C.) was “quite stable in PBS buffer”. `CCCCCC(=O)N[C@@H]1CSCc2cc(CSCCNC(=O)COCCOCCNC(=O)COCCOCCNC(=O)CSC3CC(=O)N(CCC(=O)N[C@H](CCCCNC(=O)CN4CCN(CC(=O)O)CCN(CC(=O)O)CCN(CC(=O)O)CC4)C(=O)NCc4ccc(C(=O)NCCC[C@@H]5C(=O)N[C@@H](CCCNC(=N)N)C(=O)N[C@@H](Cc6ccc7ccccc7c6)C(=O)NCC(=O)N[C@H](Cc6ccc(O)cc6)C(=O)N5C)cc4)C3=O)cc(c2)CSC[C@@H](C(=O)O)NC(=O)[C@H](Cc2ccccc2)NC(=O)[C@H](CCC(N)=O)NC(=O)C([C@@H](C)O)NC(=O)[C@@H]2CCCN2C(=O)[C@@H]2CCCN2C1=O` (single isomer, unassigned) [^177Lu-SDYD06, metal not drawn]: the “stability in PBS buffer (in words)” value in data set [1] is “quite stable in PBS buffer”. Same read-out and setting: for `CCCCCC(=O)N[C@H]1CSCc2cc(CSCCNC(=O)[C@H](CCCCNC(=O)CCN3C(=O)CC(SCC(=O)NCCOCCOCCOCCOCCC(=O)NCCCC[C@@H]4NC(=O)[C@@H](Cc5ccc(O)cc5)NC(=O)[C@H](CC(=O)O)NC(=O)CNC(=O)[C@H](CCCNC(=N)N)NC4=O)C3=O)NC(=O)CCC(C(=O)O)N3CCN(CC(=O)O)CCN(CC(=O)O)CCN(CC(=O)O)CC3)cc(c2)CSC[C@@H](C(=O)O)NC(=O)[C@H](Cc2ccccc2)NC(=O)[C@H](CCC(N)=O)NC(=O)C([C@@H](C)O)NC(=O)[C@@H]2CCCN2C(=O)[C@@H]2CCCN2C1=O` (single isomer, unassigned) [^177Lu-SDYD08, metal not drawn] the value was “quite stable in PBS buffer”. With `N#C[C@@H]1CC(F)(F)CN1C(=O)CNC(=O)c1ccnc2ccc(OCCCN3CCN(C(=O)CCOCCOCCNC(=O)CCN4C(=O)CC(SC[C@H](NC(=O)CN5CCN(CC(=O)O)CCN(CC(=O)O)CCN(CC(=O)O)CC5)C(=O)NCCCC[C@@H]5NC(=O)[C@@H](Cc6ccc(O)cc6)NC(=O)[C@H](CC(=O)O)NC(=O)CNC(=O)[C@H](CCCNC(=N)N)NC5=O)C4=O)CC3)cc12` (stereo partly drawn) [^68Ga-SDYD07-1, metal not drawn], in data set [2], the “radioactive uptake in non-target organs (in words)” value is “relatively high non-specific uptake in both the kidneys and liver”; the “tumor uptake after 60 minutes (in words)” value was “decreased significantly after 60 minutes”. Moreover, in data set [3], the tissue uptake at 0.5 h is around 3 %ID/g and the tissue uptake at 1 h is around 3 %ID/g. Consider `CN1C(=O)[C@@H](Cc2ccc(O)cc2)NC(=O)CNC(=O)[C@H](Cc2ccc3ccccc3c2)NC(=O)[C@H](CCCNC(=N)N)NC(=O)[C@H]1CCCNC(=O)c1ccc(CNC(=O)[C@H](CCCCNC(=O)CN2CCN(CC(=O)O)CCN(CC(=O)O)CCN(CC(=O)O)CC2)NC(=O)CCC(=O)NCCOCCOCC(=O)NCCOCCOCC(=O)N2CCN(CCCOc3ccc4nccc(C(=O)NCC(=O)N5CC(F)(F)C[C@H]5C#N)c4c3)CC2)cc1` [^177Lu-SDYD05, metal not drawn], for which the “stability in PBS buffer (in words)” value in data set [1] is listed as “quite stable in PBS buffer”.

In general, tissue uptake refers to the percentage of the injected dose found per gram of tissue. Higher therefore signals strong accumulation.
